The text below walks through data of publication PMC5660093, “Structure of SgK223 pseudokinase reveals novel mechanisms of homotypic and heterotypic association” (Nature Communications, 2017).

Substitutions are numbered along the chain they refer to.

Sequences and labels used below:
B1: SgK269-αN1-PsK-Cter (WT) (domain or fragment, human, UniProt Q9H792 1267-1746, looked up)
chain: GIQKPQRQALYRGLENREEVVGKIRSLHTDALKKLAVKCEDLFMAGQKDQLRFGVDSWSDFRLTSDKPCCEAGDAVYYTASYAKDPLNNYAVKICKSKAKESQQYYHSLAVRQSLAVHFNIQQDCGHFLAEVPNRLLPWEDPDDPEKDEDDMEETEEDAKGETDGKNPKPCSEAASSQKENQGVMSKKQRSHVVVITREVPCLTVADFVRDSLAQHGKSPDLYERQVCLLLLQLCSGLEHLKPYHVTHCDLRLENLLLVHYQPGGTAQGFGPAEPSPTSSYPTRLIVSNFSQAKQKSHLVDPEILRDQSRLAPEIITATQYKKCDEFQTGILIYEMLHLPNPFDENPELKEREYTRADLPRIPFRSPYSRGLQQLASCLLNPNPSERILISDAKGILQCLLWGPREDLFQTFTACPSLVQRNTLLQNWLDIKRTLLMIKFAEKSLDREGGISLEDWLCAQYLAFATTDSLSCIVKILQHR
notes: SgK269 (PEAK1), human, residues 1267-1746: αN1 helix, pseudokinase domain and C-terminal helices; also called SgK269-WT (αN1-PsK-Cter); SgK269-WT; source: E. coli C41(DE3), purified (Ni-NTA, SEC)
B2: His tag cleaved SgK269-αN1-PsK-Cter F1609A (domain or fragment, human, UniProt Q9H792 1267-1746, looked up)
chain: B1 chain with F343A
notes: SgK269 (PEAK1), human, residues 1267-1746; also called SgK269-αN1-PsK-Cter Phe1609Ala; source: E. coli C41(DE3), purified (Ni-NTA, SEC); not shown: His tag, N-terminal, cleaved
B3: SgK223-αN1-PsK-Cter F974A (domain or fragment, human, UniProt Q86YV5 932-1406, looked up)
chain: GSTQLQLHGLLSNISSKEGTYAKLGGLYTQSLARLVAKCEDLAMGGQKKELHFNENNWSLFKLTCNKPCCDSGDAIYYCATCSEDPGSTYAVKICKAPEPKTVSYCSPSVPVHFNIQQDCGHFVASVPSSMLSSPDAPKDPVPALPTHPPAQEQDCVVVITREVPHQTASDFVRDSAASHQAEPEAYERRVCFLLLQLCNGLEHLKEHGIIHRDLCLENLLLVHCTLQAGPGPAPAPAPAPAPAAAAPPCSSAAPPAGGTLSPAAGPASPEGPREKQLPRLIISNFLKAKQKPGGTPNLQQKKSQARLAPEIVSASQYRKFDEFQTGILIYELLHQPNPFEVRAQLRERDYRQEDLPPLPALSLYSPGLQQLAHLLLEADPIKRIRIGEAKRVLQCLLWGPRRELVQQPGTSEEALCGTLHNWIDMKRALMMMKFAEKAVDRRRGVELEDWLCCQYLASAEPGALLQSLKLLQLL
notes: SgK223 (Pragmin), human, residues 932-1406; source: E. coli C41(DE3), purified (Ni-NTA, SEC)
B4: SgK223-αN1-PsK-Cter W1354A (domain or fragment, human, UniProt Q86YV5 932-1406, looked up)
chain: B3 chain with A43F, W423A
notes: SgK223 (Pragmin), human, residues 932-1406; also called alanine mutation of Trp1354; source: E. coli C41(DE3), purified (Ni-NTA, SEC)
B5: SgK223-αN1-PsK-Cter (WT) (domain or fragment, human, UniProt Q86YV5 932-1406, looked up)
chain: B3 chain with A43F
notes: SgK223 (Pragmin), human, residues 932-1406: αN1 helix, pseudokinase domain and C-terminal helices; Modified pCOLD IV vector with an N-terminal His TEV cleavage tag; Monomer MW printed as 54 kDa; A seleno-methionine form was also crystallised; also called WT-SgK223-αN1-PsK-Cter; SgK223-WT (αN1-PsK-Cter); source: E. coli C41(DE3), purified (Ni-NTA, SEC)
B6: SgK223 αN1-PsK-Cter I1243A (domain or fragment, human, UniProt Q86YV5 932-1406, looked up)
chain: B3 chain with A43F, I312A
notes: as for B3
B7: SgK223-αN1-PsK-Cter F1271A (domain or fragment, human, UniProt Q86YV5 932-1406, looked up)
chain: B3 chain with A43F, F340A
notes: SgK223 (Pragmin), human, residues 932-1406; also called SgK223-αN1-PsK-Cter Phe1271Ala; His-SgK223-αN1-PsK-Cter; source: E. coli C41(DE3), purified (Ni-NTA, SEC); not shown: His tag, N-terminal, kept
B8: SgK223-αN1-PsK-Cter Y1282A (domain or fragment, human, UniProt Q86YV5 932-1406, looked up)
chain: B3 chain with A43F, Y351A
notes: as for B3

Data set [1] deals with the molecule itself. The data set can be described thus: AUC; sedimentation velocity, WT and oligomer-interface mutants each at 20 μM; 20 mM Tris-HCl, 150 mM NaCl, pH 8.0, 20 °C.
Data set [2] concerns the molecule itself. The data set can be described thus: SEC; peaks from the Mono Q column on Superdex 200 Increase 10/300 GL; 20 mM Tris pH 8.5, 200 mM NaCl, 1 mM TCEP. A general note: Size exclusion chromatography separates by hydrodynamic size, large species first.
Data set [3] concerns the molecule itself. In words: AUC; sedimentation velocity, WT and mutants each at 3.0 μM; 20 mM Tris-HCl, 150 mM NaCl, pH 8.0, 20 °C.
Data set [4] deals with the molecule itself. The data set can be described thus: AUC; sedimentation velocity at 0.6, 1.2 and 2.3 μM; 20 mM Tris-HCl, 150 mM NaCl, pH 8.0, 20 °C; dimer to monomers.
The data set “SgK269-αN1-PsK-Cter (WT)” addresses B1. In words: SEC; SgK223 and SgK269 proteins mixed equimolar at 29.06 μM, 15 min on ice; Superdex 200 Increase 10/300 GL; 20 mM Tris pH 8.5, 200 mM NaCl, 5% glycerol, 1 mM TCEP; preformed homodimers mixed. The settings on record: both partners purified.
Data set [5] concerns the molecule itself. In words: SAXS; inline gel filtration (Superdex 200 5/150); 20 mM Tris pH 8.5, 200 mM NaCl, 1 mM TCEP, 5% glycerol, 12 °C; WT injected at 2.2 mg/ml, I1243A at 3.5 mg/ml.
In data set [6] the target is B2. The data set can be described thus: anion exchange chromatography (Mono Q); the two αG mutants mixed equimolar at 20 μM, overnight on ice, diluted five times, Mono Q 5/50 GL, linear NaCl gradient, 20 mM Tris pH 8.5; peaks analysed by SDS-PAGE. The note with it: both partners purified.

In the case of B1, in data set [1], the binding result was “binds”.

For B2, the stoichiometry N (usually the number of molecules, sites or subunits per partner or assembly) in data set [2] came out at 2.

Take B3: the binding result in data set [3] is reported as “binds”.

For the molecule B4, the binding result in data set [3] is given as “binds”.

Regarding B5, in data set [4], the “stoichiometry N” value worked out at 2. The binding result with SgK269-αN1-PsK-Cter (WT) is recorded as “binds”.

Regarding B6, the “stoichiometry N” value in data set [5] is 2.

As to B7, the binding result in data set [6] is recorded as “binds”. For the same molecule, the “stoichiometry N” value in data set [1] was determined as 2.

Turning to B8, the “stoichiometry N” value in data set [1] stood at 2.
